Assay results taken from the supplement of paper PMC10065799, “High-throughput profiling of sequence recognition by tyrosine kinases and SH2 domains using bacterial peptide display” (eLife, 2023).

biological target: FGFR1 (UniProt P11362); experiment: phosphorylation enrichment, bacterial display (enrichment ratio); higher = better substrate or ligand; peptides without Tyr show the background
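Also: 11-residue human phosphosite peptides and single-mutation variants displayed on the E. coli surface, counted by deep sequencing, each peptide's frequency after selection divided by its frequency in the unselected input library; frequency after pTyr selection over input frequency; kinase dosed for 20-30% of maximal phosphorylation in three min.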

Chain of FGFR1 (P11362 whole entry, looked up): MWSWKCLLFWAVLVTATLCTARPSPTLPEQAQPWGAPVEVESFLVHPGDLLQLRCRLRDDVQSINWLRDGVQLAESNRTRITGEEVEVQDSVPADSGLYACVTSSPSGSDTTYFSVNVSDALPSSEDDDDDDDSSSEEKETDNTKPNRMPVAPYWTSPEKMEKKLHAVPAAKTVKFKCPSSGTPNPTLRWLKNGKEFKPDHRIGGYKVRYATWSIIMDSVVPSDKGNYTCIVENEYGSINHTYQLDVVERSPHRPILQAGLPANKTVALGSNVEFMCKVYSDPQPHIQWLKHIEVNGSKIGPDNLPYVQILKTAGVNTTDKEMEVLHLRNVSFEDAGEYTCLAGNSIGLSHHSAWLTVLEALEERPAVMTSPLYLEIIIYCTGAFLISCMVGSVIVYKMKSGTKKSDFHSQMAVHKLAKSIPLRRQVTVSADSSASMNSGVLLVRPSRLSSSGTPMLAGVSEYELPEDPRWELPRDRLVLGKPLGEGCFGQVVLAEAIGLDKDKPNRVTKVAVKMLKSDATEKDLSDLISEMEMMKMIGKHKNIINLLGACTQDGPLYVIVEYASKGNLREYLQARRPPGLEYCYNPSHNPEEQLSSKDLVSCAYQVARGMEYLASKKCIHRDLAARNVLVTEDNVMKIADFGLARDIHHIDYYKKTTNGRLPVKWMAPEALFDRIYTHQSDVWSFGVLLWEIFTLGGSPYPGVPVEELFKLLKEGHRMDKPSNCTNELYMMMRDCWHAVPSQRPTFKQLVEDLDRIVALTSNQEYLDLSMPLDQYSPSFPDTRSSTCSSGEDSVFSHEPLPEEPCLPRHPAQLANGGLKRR

Sequence	phosphorylation enrichment
TVEDHDYEGGI [TKT_Y563_Y563D]	0.481
FEEDSYVERSQ [RET_Y905_K907E_YF]	0.508
DDEESYENVPR [FCRL3_Y722_N721S]	0.475
LVSCAYQVARG [FGFR1_Y605]	0.462
ILKPDYQPLAV [HYDIN_Y1072_I1077V]	0.475
GGTTMYPGIAD [ACTC1_Y308]	0.451
PIPAAYNKFDQ [CDC73_Y290_R292K_YF]	0.57
KLKRSYSSRDI [USP8_Y717_P720R]	0.289
EEETDYTPVWC [UROD_Y30_G25E]	0.554
NQELIYEGRRL [TBK1_Y354]	0.472
DESEDCRDTVV [CNNM3_Y456_Y456C]	0.589
GDYYRYLAEVA [YWHAG_Y133]	11.5
SGGGLYRDMGA [CBX8_Y321]	0.524
DYDHSYYFIAT [ESD_Y262_G257D]	11.7
YQEPVYSVAFS [TBL1X_Y509_H504Y]	6.72
KERNQYGGVMV [MMP21_Y347_E349G]	0.418
SQETFYRVSNM [ABCD1_Y181_Q178E_YF]	0.386

Sequence	phosphorylation enrichment
RSSGSYGGGGQ [HNRNPA1_Y341_P340S]	0.536
PLDGEYFILQI [TP53_Y327_T329I]	14.5
SSNLYYRWLTA [CNGA3_Y169]	6.93
SCPANYFAFKI [FAM3D_Y65_P60S]	7.58
GDKKAYVRLAP [RPL23A_Y137_E133D]	0.535
ADLTEYLSTHY [UQCRC1_Y219]	0.52
TLGPFYPSLLF [CRYAA_Y18_R21L]	0.646
PDDPSYSLVDD [PSTPIP2_Y323_N322S]	0.899
AVRYIYTIDGS [DCX_Y105_G100A]	0.579
FADTAYNYRHG [PAH_Y166_I164T]	0.899
GRQGIYTENKR [GPR143_Y231_E235K]	0.477
ASFSLYEPAKM [MKI67_Y340_P338S]	0.518
IKNSGYISQYL [EIF2AK3_Y585_R588Q]	0.443
DYTEAYNPKIK [CLK1_Y305]	0.624
KRLKDYLMVLQ [USP25_Y425_T427M]	1.5
MSSLPYMKMIF [SLC4A11_Y853]	0.753

biological target: Fyn (UniProt P06241); experiment: as above
Sequence (P06241 whole entry, looked up): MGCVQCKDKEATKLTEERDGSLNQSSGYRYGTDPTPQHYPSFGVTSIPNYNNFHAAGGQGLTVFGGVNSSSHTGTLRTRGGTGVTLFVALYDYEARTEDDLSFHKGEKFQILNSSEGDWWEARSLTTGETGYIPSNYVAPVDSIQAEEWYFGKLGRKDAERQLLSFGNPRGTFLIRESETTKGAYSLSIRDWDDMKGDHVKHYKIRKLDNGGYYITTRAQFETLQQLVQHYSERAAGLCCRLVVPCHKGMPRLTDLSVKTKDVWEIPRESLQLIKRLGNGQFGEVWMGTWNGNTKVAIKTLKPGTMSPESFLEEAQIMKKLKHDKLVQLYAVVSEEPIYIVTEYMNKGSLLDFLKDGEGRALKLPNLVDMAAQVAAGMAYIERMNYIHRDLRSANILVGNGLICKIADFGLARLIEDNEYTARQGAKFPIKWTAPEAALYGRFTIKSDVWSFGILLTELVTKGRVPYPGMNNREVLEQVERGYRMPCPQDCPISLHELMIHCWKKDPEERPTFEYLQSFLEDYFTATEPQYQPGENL

Sequence	phosphorylation enrichment
TVEDHDYEGGI [TKT_Y563_Y563D]	0.478
FEEDSYVERSQ [RET_Y905_K907E_YF]	0.504
DDEESYENVPR [FCRL3_Y722_N721S]	0.516
LVSCAYQVARG [FGFR1_Y605]	0.487
ILKPDYQPLAV [HYDIN_Y1072_I1077V]	0.48
GGTTMYPGIAD [ACTC1_Y308]	0.493
PIPAAYNKFDQ [CDC73_Y290_R292K_YF]	0.745
KLKRSYSSRDI [USP8_Y717_P720R]	0.329
EEETDYTPVWC [UROD_Y30_G25E]	0.484
NQELIYEGRRL [TBK1_Y354]	8.61
DESEDCRDTVV [CNNM3_Y456_Y456C]	0.528
GDYYRYLAEVA [YWHAG_Y133]	1.39
SGGGLYRDMGA [CBX8_Y321]	0.48
DYDHSYYFIAT [ESD_Y262_G257D]	1.48
YQEPVYSVAFS [TBL1X_Y509_H504Y]	12.4
KERNQYGGVMV [MMP21_Y347_E349G]	0.556
SQETFYRVSNM [ABCD1_Y181_Q178E_YF]	0.396

Sequence	phosphorylation enrichment
RSSGSYGGGGQ [HNRNPA1_Y341_P340S]	0.539
PLDGEYFILQI [TP53_Y327_T329I]	3.7
SSNLYYRWLTA [CNGA3_Y169]	2
SCPANYFAFKI [FAM3D_Y65_P60S]	0.901
GDKKAYVRLAP [RPL23A_Y137_E133D]	0.43
ADLTEYLSTHY [UQCRC1_Y219]	0.549
TLGPFYPSLLF [CRYAA_Y18_R21L]	0.535
PDDPSYSLVDD [PSTPIP2_Y323_N322S]	0.885
AVRYIYTIDGS [DCX_Y105_G100A]	3.86
FADTAYNYRHG [PAH_Y166_I164T]	0.456
GRQGIYTENKR [GPR143_Y231_E235K]	0.372
ASFSLYEPAKM [MKI67_Y340_P338S]	1.27
IKNSGYISQYL [EIF2AK3_Y585_R588Q]	0.427
DYTEAYNPKIK [CLK1_Y305]	0.456
KRLKDYLMVLQ [USP25_Y425_T427M]	0.456
MSSLPYMKMIF [SLC4A11_Y853]	0.421

tested on: AncSZ; experiment: as above

Sequence	phosphorylation enrichment
TVEDHDYEGGI [TKT_Y563_Y563D]	1.08
FEEDSYVERSQ [RET_Y905_K907E_YF]	1.18
DDEESYENVPR [FCRL3_Y722_N721S]	1.12
LVSCAYQVARG [FGFR1_Y605]	0.867
ILKPDYQPLAV [HYDIN_Y1072_I1077V]	0.817
GGTTMYPGIAD [ACTC1_Y308]	0.854
PIPAAYNKFDQ [CDC73_Y290_R292K_YF]	1.54
KLKRSYSSRDI [USP8_Y717_P720R]	0.45
EEETDYTPVWC [UROD_Y30_G25E]	1.58
NQELIYEGRRL [TBK1_Y354]	0.755
DESEDCRDTVV [CNNM3_Y456_Y456C]	1.22
GDYYRYLAEVA [YWHAG_Y133]	2.37
SGGGLYRDMGA [CBX8_Y321]	0.564
DYDHSYYFIAT [ESD_Y262_G257D]	2.9
YQEPVYSVAFS [TBL1X_Y509_H504Y]	5.95
KERNQYGGVMV [MMP21_Y347_E349G]	0.534
SQETFYRVSNM [ABCD1_Y181_Q178E_YF]	0.61

Sequence	phosphorylation enrichment
RSSGSYGGGGQ [HNRNPA1_Y341_P340S]	0.492
PLDGEYFILQI [TP53_Y327_T329I]	4.19
SSNLYYRWLTA [CNGA3_Y169]	1.04
SCPANYFAFKI [FAM3D_Y65_P60S]	1.16
GDKKAYVRLAP [RPL23A_Y137_E133D]	0.603
ADLTEYLSTHY [UQCRC1_Y219]	1.01
TLGPFYPSLLF [CRYAA_Y18_R21L]	0.865
PDDPSYSLVDD [PSTPIP2_Y323_N322S]	1.6
AVRYIYTIDGS [DCX_Y105_G100A]	0.948
FADTAYNYRHG [PAH_Y166_I164T]	0.672
GRQGIYTENKR [GPR143_Y231_E235K]	0.723
ASFSLYEPAKM [MKI67_Y340_P338S]	1.27
IKNSGYISQYL [EIF2AK3_Y585_R588Q]	0.593
DYTEAYNPKIK [CLK1_Y305]	1.02
KRLKDYLMVLQ [USP25_Y425_T427M]	0.661
MSSLPYMKMIF [SLC4A11_Y853]	0.946

biological target: Fes (UniProt P07332); experiment: as above
Sequence (P07332 whole entry, looked up): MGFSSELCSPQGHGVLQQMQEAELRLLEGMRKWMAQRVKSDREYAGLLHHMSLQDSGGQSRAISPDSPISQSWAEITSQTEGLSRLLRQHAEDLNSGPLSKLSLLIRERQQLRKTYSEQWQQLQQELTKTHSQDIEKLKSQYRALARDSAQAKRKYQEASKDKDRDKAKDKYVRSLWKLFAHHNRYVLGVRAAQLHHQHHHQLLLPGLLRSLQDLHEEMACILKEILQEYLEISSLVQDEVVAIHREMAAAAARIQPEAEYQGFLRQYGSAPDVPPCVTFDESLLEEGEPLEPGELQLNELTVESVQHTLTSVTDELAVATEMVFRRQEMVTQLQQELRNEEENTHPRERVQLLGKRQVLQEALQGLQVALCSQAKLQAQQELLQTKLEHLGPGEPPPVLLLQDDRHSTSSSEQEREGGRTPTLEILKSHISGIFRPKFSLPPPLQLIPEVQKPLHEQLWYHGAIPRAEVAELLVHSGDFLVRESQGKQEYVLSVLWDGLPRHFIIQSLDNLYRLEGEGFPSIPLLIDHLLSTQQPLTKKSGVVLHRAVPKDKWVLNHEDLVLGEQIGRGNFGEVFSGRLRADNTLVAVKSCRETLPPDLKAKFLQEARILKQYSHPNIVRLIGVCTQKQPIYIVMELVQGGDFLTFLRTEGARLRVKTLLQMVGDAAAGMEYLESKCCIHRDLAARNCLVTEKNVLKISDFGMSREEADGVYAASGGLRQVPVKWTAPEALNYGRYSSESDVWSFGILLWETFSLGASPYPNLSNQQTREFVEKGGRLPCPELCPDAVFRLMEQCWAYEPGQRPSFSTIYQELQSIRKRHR

Sequence	phosphorylation enrichment
TVEDHDYEGGI [TKT_Y563_Y563D]	1.17
FEEDSYVERSQ [RET_Y905_K907E_YF]	1.26
DDEESYENVPR [FCRL3_Y722_N721S]	0.969
LVSCAYQVARG [FGFR1_Y605]	0.89
ILKPDYQPLAV [HYDIN_Y1072_I1077V]	0.828
GGTTMYPGIAD [ACTC1_Y308]	0.722
PIPAAYNKFDQ [CDC73_Y290_R292K_YF]	0.864
KLKRSYSSRDI [USP8_Y717_P720R]	0.464
EEETDYTPVWC [UROD_Y30_G25E]	1.25
NQELIYEGRRL [TBK1_Y354]	0.763
DESEDCRDTVV [CNNM3_Y456_Y456C]	1.11
GDYYRYLAEVA [YWHAG_Y133]	1.01
SGGGLYRDMGA [CBX8_Y321]	0.618
DYDHSYYFIAT [ESD_Y262_G257D]	1.13
YQEPVYSVAFS [TBL1X_Y509_H504Y]	4.74
KERNQYGGVMV [MMP21_Y347_E349G]	0.594
SQETFYRVSNM [ABCD1_Y181_Q178E_YF]	0.763

Sequence	phosphorylation enrichment
RSSGSYGGGGQ [HNRNPA1_Y341_P340S]	0.532
PLDGEYFILQI [TP53_Y327_T329I]	2
SSNLYYRWLTA [CNGA3_Y169]	0.897
SCPANYFAFKI [FAM3D_Y65_P60S]	1.08
GDKKAYVRLAP [RPL23A_Y137_E133D]	0.58
ADLTEYLSTHY [UQCRC1_Y219]	0.972
TLGPFYPSLLF [CRYAA_Y18_R21L]	1.03
PDDPSYSLVDD [PSTPIP2_Y323_N322S]	1.53
AVRYIYTIDGS [DCX_Y105_G100A]	1.2
FADTAYNYRHG [PAH_Y166_I164T]	0.831
GRQGIYTENKR [GPR143_Y231_E235K]	0.585
ASFSLYEPAKM [MKI67_Y340_P338S]	1.28
IKNSGYISQYL [EIF2AK3_Y585_R588Q]	0.783
DYTEAYNPKIK [CLK1_Y305]	0.913
KRLKDYLMVLQ [USP25_Y425_T427M]	0.791
MSSLPYMKMIF [SLC4A11_Y853]	1.03
